This note sets out measurements from article PMC12830901.

Assay in all cases: split reporter (BiFC, NanoBiT); receptor-SmBiT and LgBiT-mini-G, LgBiT-mini-GΔα5 or LgBiT-β-arrestin transiently co-transfected in HEK293T; live cells 48 h after transfection; NanoBiT PPI system (Promega), luminescence normalised by the expression of both constructs; in the mutant and ΔHA panels the mini-GΔα5 signal was subtracted and results given as a percentage of the reference construct

In experiment [1] the target is ADGRL4-CTF1 F409A (human) (UniProt Q9HBW9).
In experiment [2] the target is ADGRL4-CTF1 I411A (human) (UniProt Q9HBW9).
Experiment [3] concerns the target ADGRL4-CTF1 H408A (human) (UniProt Q9HBW9).
Experiment [4] addresses ADGRL4-CTF1 L412A (human) (UniProt Q9HBW9).
Experiment [5] concerns the target ADGRL4-CTF1 S414A (human) (UniProt Q9HBW9).

In turn, LgBiT-mini-Gq (mini-Gs/q version 70) gave a Gq activity, percent of wild-type CTF1 (% of wild-type CTF1) in experiment [1] of 12. In addition, the reduction of Gq activity, percent of wild-type CTF1 in experiment [2], in experiment [3], in experiment [4] and in experiment [5] was above 50% each time.
